Values joined by “and” are separate entries in the source; they are usually repeats but may differ in a detail not shown here. Identical values can stand only once. “Also recorded” adds a separate entry of the source.

Here are results for one substance from patent US8815803B2, “Method for increasing body height comprising systemic administration of CNP-53” (priority 2004, dated 2014).

Format in all cases: in vivo
For one data set, the system named is mice. In words: Growth curve of CNP transgenic mouse (naso-anal length). The procedure:
The naso-anal lengths (in cm) of female and male CNP transgenic mice, as well as those of female and male normal littermates, were measured on time over a period of 2 to 9 weeks (FIG. 4).

The nature of data set [1]: CNP expression in CNP transgenic mouse: CNP-22 EIA, blood plasma. As for the experimental part: (§1) A CNP-22 EIA measuring kit (PHOENIX PHARMACEUTICALS INC.) was used for the determination of a CNP level.
(§2) Three each of 7-week old male and female CNP transgenic mice, as well as 3 each of male and female normal litter of mice, were euthanized by exsanguination from the postcava under ether anesthesia.
One mg of ethylenediaminetetraacetate-4Na (Junsei Chemical Co., Ltd., Japan) and 2 trypsin-inhibition units of aprotinin (Sigma) were added to the drawn blood and agitated to separate blood plasma, which was used as a sample for the determination of CNP-22 levels.

Data set [2] in a line: CNP expression in CNP transgenic mouse: CNP-22 EIA, liver. The procedure:
as §1, §2
The liver was homogenized in a Waring blender (Physcotron), and after centrifugation (at 2,000 rpm for 5 minutes), the supernatant was used as a sample for the determination of CNP-22 levels.

Data set [3] has as its system growth cartilage of femora. In words: Histological analysis of the growth cartilage of CNP transgenic mouse. Conditions: 9-week old female CNP transgenic mice, patellar surface femur. An excerpt: For the purpose of analyzing the thickness of the growth cartilage histologically, 5 each of 9-week old female CNP transgenic mice and female normal litter of mice were euthanized by exsanguination from the postcava under ether anesthesia, and the thigh bone was fixed in 20% formalin for a week. After soaking in a 20% aqueous solution of EDTA-4Na (pH 7.4) (Junsei Chemical Co., Ltd., Japan) for decalcification, the patellar surface femur was subjected to a midline sagittal section and embedded in paraffin by conventional method to prepare a paraffin block. A 4 μm-thick section was further sectioned with a microtome to prepare paraffin sections, which were stained with hematoxylin and eosin. For the thickness of the growth cartilage, one microscopic field observed using an objective lens (×10) was incorporated into an image analysis software (IPAP, Sumika Technoservice, Japan), and each thickness of the resting layer, proliferating layer and hypertrophic layer was measured at 5 points in the microscopic field using the same software, and the calculated mean value thereof was taken as the thickness of each layer of the individual. The total of the three layers was regarded as the thickness of the growth cartilage of the individual. […]

The mark [4] stands for this setting: 7-week old CNP transgenic mice, individual animal, CNP-22 EIA.
[5] abbreviates: CNP transgenic mouse vs wild type, means compared.

“CNP: C-type natriuretic peptide, a GC-B activator, overexpressed from murine CNP cDNA transgene in mice; measured with CNP-22 EIA kit”: the “naso-anal length vs normal litter (WT)” value is listed as “significantly greater” in the data set on mice (female CNP transgenic mice, at 2 weeks old and thereafter); “significantly greater” in the data set on mice (male CNP transgenic mice, at 4 weeks old and thereafter). Moreover, the “naso-anal length vs normal littermates” value in the data set with mice (female and male CNP transgenic mice, over a period of 2 to 9 weeks) was “greater than those of the normal littermates; also recorded: greater than those of the normal litter”. Besides, the “CNP level, Plasma” value in data set [1] (setting [4]) was 11.1 ng/mL and 2.6 ng/mL and 10.3 ng/mL. Further, the “CNP level, Plasma, mean ± SD” value in data set [1] (7-week old CNP transgenic mice, mean ± SD of No. 1-3) amounted to 8.0 ± 4.7 ng/mL. In data set [1] (setting [5]), the “CNP level in blood plasma, higher than the wild type” value is on record as “about 24 fold”. Also, the “CNP level, Liver” value in data set [2] (setting [4]) was 370.0 ng/g tissue and 206.7 ng/g tissue and 293.3 ng/g tissue. For the same substance, the “CNP level, Liver, mean ± SD” value in data set [2] (7-week old CNP transgenic mice, mean ± SD of No. 1-3, p < 0.01 vs wild type) is 290 ± 81.7 ng/g tissue. Besides, in data set [2] (setting [5]), the “CNP level in the liver, higher than the wild type” value is “about 10 fold”. Further, the “thickness of resting layer, proliferating layer, hypertrophic layer and total thickness of growth cartilage vs wild type” value in data set [3] was “greater with statistical significance; also recorded: significantly greater”.
